In article PMC7089606 (Journal of Molecular Biology, 2010):
Values belong to the molecule of their own block, whether it stands above or below them.

Experiments:
[1] = target: T1, DmCPD1Bs (D. melanogaster carboxypeptidase D variant 1B short) (Drosophila melanogaster, UniProt P42787); assay: crystal structure at […] Å; format: biochemical
T1 sequence (P42787 26-435 isoform P42787-7): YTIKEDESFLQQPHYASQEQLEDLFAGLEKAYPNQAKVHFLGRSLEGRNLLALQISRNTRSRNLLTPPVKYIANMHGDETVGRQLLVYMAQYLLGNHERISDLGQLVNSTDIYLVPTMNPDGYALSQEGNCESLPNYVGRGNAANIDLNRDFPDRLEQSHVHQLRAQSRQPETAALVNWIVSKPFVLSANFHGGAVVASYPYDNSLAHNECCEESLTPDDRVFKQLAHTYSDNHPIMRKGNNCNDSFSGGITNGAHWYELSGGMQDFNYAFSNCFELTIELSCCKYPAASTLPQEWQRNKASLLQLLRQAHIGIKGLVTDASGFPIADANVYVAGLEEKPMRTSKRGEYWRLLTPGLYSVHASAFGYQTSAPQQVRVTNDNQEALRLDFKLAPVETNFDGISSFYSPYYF

[2] = recombinant expression yield in P. pastoris; conditions: glycan lost; control: wild type
purified protein = substrate: N=C(N)NCCC[C@H](NC(=O)CNC(=O)c1ccccc1)C(=O)O; assay: purified protein; conditions: Zn2+

Ki [1]: 670 ± 80 nM
Molecule: N=C(N)NCCSC(CC(=O)O)C(=O)O (stereo not drawn) [GEMSA, 2-guanidinoethyl-mercaptosuccinic acid]

Molecule: DmCPD1Bs (carboxypeptidase D variant 1B short, svr-PF): N133Q
expression_or_secretion [2]: decreases

Molecule: DmCPD1Bs (carboxypeptidase D variant 1B short, svr-PF): N269Q
expression_or_secretion [2]: decreases

B1: DmCPD1Bs (D. melanogaster carboxypeptidase D variant 1B short) (Drosophila melanogaster) (protein)
chain: YTIKEDESFLQQPHYASQEQLEDLFAGLEKAYPNQAKVHFLGRSLEGRNLLALQISRNTRSRNLLTPPVKYIANMHGDETVGRQLLVYMAQYLLGNHERISDLGQLVNSTDIYLVPTMNPDGYALSQEGNCESLPNYVGRGNAANIDLNRDFPDRLEQSHVHQLRAQSRQPETAALVNWIVSKPFVLSANFHGGAVVASYPYDNSLAHNECCEESLTPDDRVFKQLAHTYSDNHPIMRKGNNCNDSFSGGITNGAHWYELSGGMQDFNYAFSNCFELTIELSCCKYPAASTLPQEWQRNKASLLQLLRQAHIGIKGLVTDASGFPIADANVYVAGLEEKPMRTSKRGEYWRLLTPGLYSVHASAFGYQTSAPQQVRVTNDNQEALRLDFKLAPVETNFDGISSFYSPYYF
Km (purified protein): 1112 ± 167 µM | kcat (purified protein): 38.8 ± 4.1 s⁻¹ | kcat/Km (purified protein): 34900 M⁻¹ s⁻¹

B2: human CPB (hCPB) (Homo sapiens) (protein)
chain: ATGHSYEKYNKWETIEAWTQQVATENPALISRSVIGTTFEGRAIYLLKVGKAGQNKPAIFMDCGFHAREWISPAFCQWFVREAVRTYGREIQVTELLDKLDFYVLPVLNIDGYIYTWTKSRFWRKTRSTHTGSSCIGTDPNRNFDAGWCEIGASRNPCDETYCGPAAESEKETKALADFIRNKLSSIKAYLTIHSYSQMMIYPYSYAYKLGENNAELNALAKATVKELASLHGTKYTYGPGATTIYPAAGGSDDWAYDQGIRYSFTFELRDTGRYGFLLPESQIRATCEETFLAIKYVASYVLEHLY
Km (purified protein): 485.3 ± 62.5 µM | kcat (purified protein): 254 ± 11.9 s⁻¹ | kcat/Km (purified protein): 523000 M⁻¹ s⁻¹
